Experimental data published in FireProtDB (doi:10.1006/jmbi.1995.0599).

Details: Homo sapiens; pH 2.7; Thermal; DSC; glycine 0.05 M; reversible: yes; whole UniProt chain shown

B1: Lysozyme C wild type, P61626 (protein)
chain: MKALIVLGLVLLSVTVQGKVFERCELARTLKRLGMDGYRGISLANWMCLAKWESGYNTRATNYNAGDRSTDYGIFQINSRYWCNDGKTPGAVNACHLSCSALLQDNIADAVACAKRVVRDPQGIRAWVAWRNRCQNRDVRQYVQGCGV
In the case of B1, the Tm is reported as 64.9 °C, the “heat capacity change of unfolding” value is reported as 1.58 kcal/mol/K and the “unfolding enthalpy (calorimetric)” value is reported as 114 kcal/mol. For the same protein, the “unfolding enthalpy (van 't Hoff)” value was 120 kcal/mol.
